Laboratory results: US20260234116A1, “CYTOTOXIC EPOXYKETONE COMPOUNDS, PRECURSORS, COMPOSITIONS, AND METHODS OF USE” (Memorial Sloan-Kettering Cancer Center, priority 2023, published 2026)
Values belong to the molecule of their own block, whether it stands above or below them.

How the values were obtained:
[1] = molecular target: T1, EpnF (Streptomyces hygroscopicus, UniProt V5RMU9); assay: Semiquantitative epoxide capture assay (EpnF-catalyzed epoxyketone formation); type: biochemical; conditions: 1 μM EpnF; for EpnF-catalyzed conversion to epoxyketone (epoxide capture): 240 μM β-ketoacid substrate (FIG. 2)
Experimental: Recombinant EpnF was diluted to 1 μM in 180 μL EpnF Buffer in an 1.5 mL Eppendorf tube. The β-ketoacid 11 was added at various concentrations to a total reaction volume of 200 μL. The mixture was incubated in a heated shaker at 37° C. and 225 rpm for 1 h. The reaction mixture (30 μL×3 technical replicates) was transferred to a white, opaque 96-well plate (PerkinElmer, OptiPlate-96). Each plate also contained 30 μL×3 technical replicates of EpnF Buffer as a negative control. To each well, 15 μL of 125 mM nicotinamide in EpnF Buffer was added and mixed by pipetting. The plate was sealed with an adhesive foil cover (VWR Adhesive Foil for Microplates) and heated in an oven at 80° C. for 1 h. The plate was cooled to rt and 25 μL of 15% (v/v) acetophenone in EtOH and 25 μL of 1 M potassium hydroxide in EtOH were added to each well, then mixed by pipetting. The plate was cooled on ice for 10 min, then 125 μL formic acid was added to each well. The plate was resealed and heated in an oven at 100° C. for 5 min. The plate was cooled on ice for 5-10 min, then analyzed (λex 370 nm, λem 430 nm) on a fluorescence plate reader (Molecular Devices Spectramax M3).
We adapted a reported epoxide capture assay [Nelis, H. J. C. F.; Sinsheimer, J. E. (1981) A sensitive fluorimetric procedure for the determination of aliphatic epoxides under physiological conditions. Anal. Biochem. 115, 151-157.] to 96-well plate format to detect formation of the epoxyketone products semiquantitatively. Each β-ketoacid substrate 11 was incubated with recombinant, purified EpnF (1 h), then reacted with nicotinamide and acetophenone (1 h) to form a fluorescent 1,6-naphthyridinone 24. The fluorescent signals were normalized to that resulting from the known substrate β-ketoacid 11n as a positive control [Zabala, D.; Cartwright, J. W.; Roberts, D. M.; Law, B. J. C.; Song, L.; Samborskyy, M.; Leadlay, P. F.; Micklefield, J.; Challis, G. L. (2016) A flavin-dependent decarboxylase-dehydrogenase-monooxygenase assembles the warhead of α,β-epoxyketone proteasome inhibitors. J. Am. Chem. Soc. 138, 4342-4345.].

[2] = during isolation and characterization; cited from earlier work
[3] = molecular target: T1, EpnF; assay: Enzyme kinetic analysis by SPE-MS/MS assay; type: biochemical; conditions: for efficiency of EpnF-catalyzed conversion compared to parent substrate 11a (in words): quantitative SPE-MS/MS assay
Experimental: (§1) SPE-MS/MS analyses were carried out on an Agilent RapidFire 365 High-Throughput Mass Spectrometry System with 6495 triple quadrupole mass spectrometer. Determination of initial velocity: EpnF stock at 100 μM was diluted 10-fold in EpnF Buffer to a 10 μM working solution, which was further diluted to 8 concentrations (10-0.005 μM) in EpnF Buffer (intermediate volume 1350 μL, concentrations calculated for 1500 μL theoretical final volume corresponding to addition of substrate solutions below). The 8 EpnF enzyme dilutions were aliquoted (90 μL) into the corresponding 8 tubes of PCR tube strips (12 strips, one per time point; Thermo Scientific, AB-2000). The β-ketoacid 11 (20 mM in EtOH) was diluted to 10 μM in EpnF Buffer, then 10 μL of this solution was added to each of the tubes (1 μM final concentration, 100 μL final volume) to initiate the reaction. Samples were incubated in a heated shaker at 37° C. and 225 rpm for up to 120 min, and one tube strip was removed at each time point. Each tube was quenched with 5% formic acid in EpnF Buffer (100 μL), pipetted vigorously, and flash frozen on dry ice. Samples were thawed then centrifuged to precipitate protein and transferred to a conical-bottom 96-well plate (Thermo Scientific/Nunc, 249944) for SPE-MS/MS analysis. Measurement of Km and Vmax: Using the data from the initial velocity experiments above, an appropriate EpnF enzyme concentration was selected for each β-ketoacid 11 at which the rate of conversion to the epoxyketone 12 remained linear at 10 min (0.50 μM for 11n and 0.05 μM for all other substrates). Each substrate (20 mM in EtOH) was diluted to 1 mM in EpnF Buffer, then diluted to 8 concentrations (100-0.5 μM) in EpnF Buffer (intermediate volume 1350 μL, concentrations calculated for 1500 μL theoretical volume corresponding to addition of enzyme solutions below). The 8 substrate dilutions were aliquoted (90 μL) into the corresponding 8 tubes of PCR tube strips (12 strips, one per time point; Thermo Scientific, AB-2000). The EpnF enzyme stock solution was diluted in EpnF Buffer to the appropriate concentration for each substrate, then 10 μL of this solution was added to each of the tubes (100 μL final volume) to initiate the reaction. For the 0-min time point, 5% formic acid in EpnF Buffer was added to the β-ketoacid substrate before addition of the enzyme. Samples were incubated in a heated shaker at 37° C. and 225 rpm for up to 10 min, and one tube strip was removed at each time point. Each tube was quenched by addition of 5% formic acid in EpnF Buffer (100 μL), pipetted vigorously, and flash frozen on dry ice. Samples were thawed then centrifuged to precipitate proteins and the supernatants were transferred to a conical-bottom 96-well plate (Thermo Scientific/Nunc, 249944) for SPE-MS/MS analysis. Km and Vmax values for each substrate were calculated by Michaelis-Menten analysis. To obtain a quantitative assessment of EpnF substrate specificity, we developed a kinetic assay (10 min) using SPE-MS/MS (solid-phase extraction/triple quadrupole mass spectrometry; Agilent RapidFire 365 with 6495 MS) to enable direct detection of both substrates and products.

[4] = substrate: CC(C)CCCCC(=O)N[C@@H](CO)C(=O)N[C@@H](CC(C)C)C(=O)C(C)(C)C(=O)O; assay: Enzyme kinetic analysis by SPE-MS/MS assay; type: biochemical; conditions: other: 0.05 μM EpnF; 37.0 °C
Experimental: as §1

[5] = substrate: CCCC(=O)N[C@@H](CO)C(=O)N[C@@H](CC(C)C)C(=O)C(C)(C)C(=O)O; assay: Enzyme kinetic analysis by SPE-MS/MS assay; type: biochemical; conditions: other: 0.50 μM EpnF; 37.0 °C
Experimental: as §1

[6] = substrate: CC(C)C[C@H](NC(=O)[C@H](CO)NC(=O)c1ccccc1)C(=O)C(C)(C)C(=O)O; assay: Enzyme kinetic analysis by SPE-MS/MS assay; type: biochemical; conditions: other: 0.05 μM EpnF; 37.0 °C
Experimental: as §1

[7] = substrate: CC(C)CCCCC(=O)N[C@H](C(=O)N[C@@H](CC(C)C)C(=O)C(C)(C)C(=O)O)C(C)O; assay: Enzyme kinetic analysis by SPE-MS/MS assay; type: biochemical; conditions: other: 0.05 μM EpnF; 37.0 °C
Experimental: as §1

[8] = substrate: CC(C)CCCCC(=O)N[C@@H](C)C(=O)N[C@@H](CC(C)C)C(=O)C(C)(C)C(=O)O; assay: Enzyme kinetic analysis by SPE-MS/MS assay; type: biochemical; conditions: other: 0.05 μM EpnF; 37.0 °C
Experimental: as §1

[9] = substrate: C=C(C)C[C@H](NC(=O)[C@H](CO)NC(=O)CCCCC(C)C)C(=O)C(C)(C)C(=O)O; assay: Enzyme kinetic analysis by SPE-MS/MS assay; type: biochemical; conditions: other: 0.05 μM EpnF; 37.0 °C
Experimental: as §1

Molecule: C=C(C)C[C@H](NC(=O)[C@H](CO)NC(=O)CCCCC(C)C)C(=O)C(C)(C)C(=O)O [Compound 11b, (S)-4-((S)-3-Hydroxy-2-(6-methylheptanamido)propanamido)-2,2,6-trimethyl-3-oxohept-6-enoic acid]
converted more efficiently than 11n ([3]; relative to 11n): ≈ 20 fold | EpnF-catalyzed formation of epoxyketone (epoxide capture) ([1]; 250 μM β-ketoacid substrate, 1 h, positive control 11n (FIG. 1)): lower levels

Molecule: CC(C)CCCCC(=O)N[C@H](C(=O)N[C@@H](CC(C)C)C(=O)C(C)(C)C(=O)O)C(C)O (stereo partly drawn) [Compound 11l, (4S)-4-[(2S)-3-Hydroxy-2-(6-methylheptanamido)butanamido]-2,2,6-trimethyl-3-oxoheptanoic acid]
efficiency of EpnF-catalyzed conversion compared to parent substrate 11a (in words) [3]: slightly lower efficiency | EpnF-catalyzed conversion to epoxyketone (epoxide capture) [1]: tolerated

Molecule: CC(C)CCCCC(=O)N[C@H](C(=O)N[C@@H](CC(C)C)C(=O)C(C)(C)C(=O)O)C(C)C [Compound 11k, (4S)-2,2,6-Trimethyl-4-[(2S)-3-methyl-2-(6-methylheptanamido)butanamido]-3-oxoheptanoic acid]
efficiency of EpnF-catalyzed conversion compared to parent substrate 11a (in words) [3]: low conversion | EpnF-catalyzed conversion to epoxyketone (epoxide capture) [1]: tolerated to a lesser degree

B1: EpnF (Streptomyces hygroscopicus) (protein)
chain: MSDSKSVNLFHRHGVPSFLEGIYQGRFEWDMISNFVAQDSADEKAGDAAVERLTDILRNRVNPTAVDATRELPEGLLEELRRTGFLNLQDSPDIGGLGLSSYNTFRVVQAAASWSVPVALVLGIQTAVGSGTYLRALPPGELHSYVEQRLLDGIISGSADTEPAGASNSARRTRAVPTDDGEAFLLTGEKIHIGNGPIADIVTVSAMLDEDGQDRPRLFFVETSDPGFSIRSRHEFMGVKGFPNAALVLDGVRVPRERMIVEVDPDTEVRITAELTMAVVRGRLHLITAPSLAISKLCLEWSRNFVNRRTIDGRPLGAREEIQHMVSSTMADVFAIQALAEWSLLPADQPDLGLNVAFEQNVTKAISAEICWRAADRTMDLLAGEGFETAPSKARRGAPALPLERFYRDARNLRISGGVSFLLQFWAARMSQFTYYGPDHAGQSAALSQDGGQQPCTDGLDPLNADHLRFAAAETRRLGAACQKFAADHPAPGLYEHQHRLIAFSRIADEILTMSVVLAKAARLHHEGRTEAQDLAAIYCAHARDRLAALWRQAEPVTAGPDHAAVSDAWLSGDDTYASLITGVITDVPPTADTHPGKR
Km [4]: 11.6 µM | kcat [4]: 0.071 s⁻¹ | kcat/Km [4]: 6120 M⁻¹ s⁻¹ | Km [5]: 23.1 µM | kcat [5]: 0.0067 s⁻¹ | kcat/Km [5]: 290 M⁻¹ s⁻¹ | Km [6]: 6.13 µM | kcat [6]: 0.0125 s⁻¹ | kcat/Km [6]: 1880 M⁻¹ s⁻¹ | Km [7]: 13.3 µM | kcat [7]: 0.016 s⁻¹ | kcat/Km [7]: 1200 M⁻¹ s⁻¹ | Km [8]: 4.70 µM | kcat [8]: 0.025 s⁻¹ | kcat/Km [8]: 5320 M⁻¹ s⁻¹ | Km [9]: 17.3 µM | kcat [9]: 0.114 s⁻¹ | kcat/Km [9]: 6580 M⁻¹ s⁻¹

Continued, in another order:

EpnF-catalyzed conversion to epoxyketone (epoxide capture) [1]: permitted
Molecule: CCCC(=O)N[C@@H](CO)C(=O)N[C@@H](CC(C)C)C(=O)C(C)(C)C(=O)O [Compound 11n, (4S)-4-((S)-2-Butyramido-3-hydroxypropanamido)-2,2,6-trimethyl-3-oxoheptanoic acid]
spontaneous decarboxylation [2]: can undergo spontaneous decarboxylation

efficiency of EpnF-catalyzed conversion compared to parent substrate 11a (in words) [3]: slightly lower efficiency
Molecule: CC(C)C[C@H](NC(=O)[C@H](CO)NC(=O)c1ccccc1)C(=O)C(C)(C)C(=O)O [Compound 11o, (4S)-4-[(2S)-3-Hydroxy-2-(phenylformamido)propanamido]-2,2,6-trimethyl-3-oxoheptanoic acid]
EpnF-catalyzed conversion to epoxyketone (epoxide capture) [1]: also tolerated
